The source of these data is PMC3945083.

One series concerns the target PARP-1 (purified) (UniProt P09874 1-1014). Description: pull-down.
A further series has as its target Flag-PARP-1 (UniProt P09874 1-1014). Description: EMSA. Background: A gel shift assay detects complexes by their altered migration in electrophoresis.

Flag-PARP-1, sequence (P09874 whole entry): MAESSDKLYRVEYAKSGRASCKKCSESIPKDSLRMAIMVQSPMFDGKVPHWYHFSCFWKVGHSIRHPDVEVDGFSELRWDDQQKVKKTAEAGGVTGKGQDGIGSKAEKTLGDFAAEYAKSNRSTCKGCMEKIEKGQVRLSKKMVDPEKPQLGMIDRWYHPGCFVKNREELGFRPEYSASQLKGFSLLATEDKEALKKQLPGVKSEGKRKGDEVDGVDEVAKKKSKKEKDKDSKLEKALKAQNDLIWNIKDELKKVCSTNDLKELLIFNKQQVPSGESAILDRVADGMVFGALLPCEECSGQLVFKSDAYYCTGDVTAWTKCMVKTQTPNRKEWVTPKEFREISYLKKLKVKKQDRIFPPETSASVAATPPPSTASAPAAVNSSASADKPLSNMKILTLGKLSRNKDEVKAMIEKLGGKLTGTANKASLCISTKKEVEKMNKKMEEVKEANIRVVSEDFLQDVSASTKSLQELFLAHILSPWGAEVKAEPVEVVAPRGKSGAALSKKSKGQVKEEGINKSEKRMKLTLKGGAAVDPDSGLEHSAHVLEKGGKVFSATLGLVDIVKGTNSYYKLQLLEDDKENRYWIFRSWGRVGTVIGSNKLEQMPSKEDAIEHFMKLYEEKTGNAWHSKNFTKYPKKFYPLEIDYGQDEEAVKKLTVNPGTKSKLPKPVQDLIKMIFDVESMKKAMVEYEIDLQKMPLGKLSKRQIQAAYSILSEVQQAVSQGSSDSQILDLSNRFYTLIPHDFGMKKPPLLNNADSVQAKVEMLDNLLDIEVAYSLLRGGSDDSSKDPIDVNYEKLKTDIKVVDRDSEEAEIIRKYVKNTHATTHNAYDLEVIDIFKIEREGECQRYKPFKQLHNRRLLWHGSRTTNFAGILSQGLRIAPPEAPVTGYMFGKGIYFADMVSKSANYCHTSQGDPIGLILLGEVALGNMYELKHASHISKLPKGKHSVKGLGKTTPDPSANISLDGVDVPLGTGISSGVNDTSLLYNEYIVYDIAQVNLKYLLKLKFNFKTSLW
PARP-1 (purified), sequence (P09874 whole entry): as above

B1: WT NQO1-ARE (dsDNA)
DNA 1: AAATCGCAGTCACAGTGACTCAGCAGAATCTGAGCCTAGGG
DNA 2: CCCTAGGCTCAGATTCTGCTGAGTCACTGTGACTGCGATTT
With B1, the binding result in the series with PARP-1 (purified) and with Flag-PARP-1 was “binds” in each case.
